{"source": "patent US20230391832A1", "about": "(ISOLERE BIO, published 2023)"}
{"target": "T1, AAV9 capsids (adeno-associated virus serotype 9, Assembled icosahedral capsid of about 60 subunits (VP1, VP2, VP3 from one gene). One VP1 chain is given. Example 1's screen does not say whether the capsids were full or empty.)", "T1 construct": "Assembled virus capsid", "experiment": "ELISA, AAV9 capsids coated on plate, His-tagged variant in E. coli lysate, anti-His-HRP luminescence; signal relative to HSA (A) or to PKD2 control (B)", "units": {"fold specificity for AAV9 capsids": "fold"}}
{"binder": "SEQ ID NO 26 (designed binder, N-terminal Met printed as (M)) MATGVRAVPGNENSLEIEELARFAVDEHNKKENALLEFVRVVKAKEQVVAGTMYYLTLEAKDGGKKKLYEAKVWVKIRAIVYWSGNFKELQEFKPVGDA", "fold specificity for AAV9 capsids": "> 3"}
{"binder": "SEQ ID NO 35 (designed binder, N-terminal Met printed as (M)) MATGVRAVPGNENSLEIEELARFAVDEHNKKENALLEFVRVVKAKEQVVAGTMYYLTLEAKDGGKKKLYEAKVWVKVRDIVSIRGNFKELQEFKPVGDA", "fold specificity for AAV9 capsids": "> 3"}
{"binder": "SEQ ID NO 40 (designed binder, N-terminal Met printed as (M)) MATGVRAVPGNENSLEIEELARFAVDEHNKKENALLEFVRVVKAKEQVVAGTMYYLTLEAKDGGKKKLYEAKVWVKVVGKWWVNINFKELQEFKPVGDA", "fold specificity for AAV9 capsids": "> 3"}
{"binder": "SEQ ID NO 28 (designed binder, N-terminal Met printed as (M)) MATGVRAVPGNENSLEIEELARFAVDEHNKKENALLEFVRVVKAKEQVVAGTMYYLTLEAKDGGKKKLYEAKVWVKAGYIGRSKANFKELQEFKPVGDA", "fold specificity for AAV9 capsids": "> 3"}
{"binder": "SEQ ID NO 34 (designed binder, N-terminal Met printed as (M)) MATGVRAVPGNENSLEIEELARFAVDEHNKKENALLEFVRVVKAKEQVVACTMYYLTLEAKDDGKKKLYEAKVWVKSRVRVIRWGNFKELQEFKPVGDA", "fold specificity for AAV9 capsids": "> 3"}
{"binder": "SEQ ID NO 48 (designed binder, N-terminal Met printed as (M)) MATGVRAVPGNENSLEIEELARFAVDEHNKKENALLEFVCVVKAKEQVVAGTMYYLTLEAKDGGKKKLYEAKVWVKVAPIYSVDSNFKELQEFKPVGDA", "fold specificity for AAV9 capsids": "> 3"}
{"binder": "SEQ ID NO 49 (designed binder, N-terminal Met printed as (M)) MATGVRAVPGNENSLEIEELARFAVDEHNKKENALLEFVRVVKAKEQVVAGTMYYLTLEAKDGGKKKLYEAKVWVKSVAIRNWYWNFKELQEFKPVGDA", "fold specificity for AAV9 capsids": "> 3"}
{"binder": "SEQ ID NO 37 (designed binder, N-terminal Met printed as (M)) MATGVRAVSGNENSLEIEELARFAVDEHNKKENALLEFVRVVKAKEQVVAGTMYYLTLEAKDGGKKKLYEAKVWVKSPVYWPKGGNFKELQEFKPVGDA", "fold specificity for AAV9 capsids": "> 3"}
{"binder": "SEQ ID NO 27 (designed binder, N-terminal Met printed as (M)) MATGVRAVPGNENSLEIEELARFAVDEHNKKENALLEFVRVMKAKEQVVAGTMYYLTLEAKDGGKKKLYEAKVWVKGVIYAYSYSNFKELQEFKPVGDA", "fold specificity for AAV9 capsids": "> 3"}
{"binder": "SEQ ID NO 50 (designed binder, N-terminal Met printed as (M)) MATGVRAVPGNENSLEIEELARFAVDEHNKKENALLEFVRVVKAKEQVVAGTMYYLTLEAKDGGKKKLYEAKVWVKVRRYSPPNRNFKELQEFKPVGDA", "fold specificity for AAV9 capsids": "> 3"}
{"binder": "SEQ ID NO 33 (designed binder, N-terminal Met printed as (M)) MATGVRAVPGNENSLEIEELARFAVDEHNKKENALLEFVRVVKAKEQVVAGTMYYLTLEAKDGGKKKLYEAKVWVKVRRDIVVPRNFKELQEFKPVGDA", "fold specificity for AAV9 capsids": "> 3"}
{"binder": "SEQ ID NO 47 (designed binder, N-terminal Met printed as (M)) MATGVRAVPGNENSLEIEELARFAVDEHNKKENALLEFVRVVKAKEQVVAGTMYYLTLEAKDGGKKKLYEAKVWVKVNIYVISPRNFKELQEFKPVGDA", "fold specificity for AAV9 capsids": "> 3"}
{"binder": "SEQ ID NO 43 (designed binder, N-terminal Met printed as (M)) MATGVRAVPGNENSLEIEELARFAVDEHNKKENALLEFVRVVKAKEQVVAGTMYYLTLEAKDGGKKKLYEAKVWVKVRYPPNIWKNFKELQEFKPVGDA", "fold specificity for AAV9 capsids": "> 3"}
{"binder": "SEQ ID NO 36 (designed binder, N-terminal Met printed as (M)) MATGVRAVPSNENSLEIEELARFAVDEHNKKENALLEFVRVVKAKEQVVAGTMYYLTLEAKDGGKKKLYEAKVWVKAIKYVRYKANFKELQEFKPVGDA", "fold specificity for AAV9 capsids": "> 3"}
{"binder": "SEQ ID NO 42 (designed binder, N-terminal Met printed as (M)) MATGVRAVPGNENSLEIEELARFAVDEHNKKENALLEFVRVVKAKEQVVAGTMYYLTLEAKDGGKKKLYEAKVWVKGRYSVYWYVNFKELQEFKPVGDA", "fold specificity for AAV9 capsids": "> 3"}
{"binder": "SEQ ID NO 52 (designed binder, N-terminal Met printed as (M)) MATGVRAMPGNENSLEIEELARFAVDEHNKKENALLEFVRVVKAKEQVVAGTMYYLTLEAKDGGKKKLYEAKVWVKVWWVVSDPANFKELQEFKPVGDA", "fold specificity for AAV9 capsids": "> 3"}
{"binder": "SEQ ID NO 31 (designed binder, N-terminal Met printed as (M)) MATGVRAVPGNENSLEIEELARFAVDEHNKKENALLEFVRVVKAKEQVVAGTMYYLTLEAKDGGKKKLYEAKVWVKISRPGWWPWNFKELQEFKPVGDA", "fold specificity for AAV9 capsids": "> 3"}
{"binder": "SEQ ID NO 32 (designed binder, N-terminal Met printed as (M)) MATGVRAVPGNENSLEIEELARFAVDEHNKKENALLEFVRVVKAKEQVVAGTMYYLTLEAKDGGKKKLYEAKVWVKSRSVRIWYSNFKELQEFKPVGDA", "fold specificity for AAV9 capsids": "> 3"}
{"binder": "SEQ ID NO 29 (designed binder, N-terminal Met printed as (M)) MATGVRAVPGNENSLEIEELARFAVDEHNKKENALLEFVRVVKAKEQVVAGTMYYLTLEAKDGGKKKLYEAKVWVKAAGYYVYAPNFKELQEFKPVGDA", "fold specificity for AAV9 capsids": "> 3"}
{"binder": "SEQ ID NO 46 (designed binder, N-terminal Met printed as (M)) MATGVRAVPGNENSLEIEELARFAVDEHNKKENALLEFVRVVKAKEQVVAGTMYYLTLEAKDGGKKKLYEAKVWVKIGIPIRIWSNFKELQEFKPVGDA", "fold specificity for AAV9 capsids": "> 3"}
{"binder": "SEQ ID NO 51 (designed binder, N-terminal Met printed as (M)) MATGVRAVPGNENSLEIEELARFAVDEHNKKENALLEFVRVVKAKEQVVAGTMYYLTLEAKDGGKKKLYEAKVWVKVRYWVDRRKNFKELQEFKPVGDA", "fold specificity for AAV9 capsids": "> 3"}
{"binder": "SEQ ID NO 38 (designed binder, N-terminal Met printed as (M)) MATGVRAVPGNENSLEIEELARFAVDEHNKKENALLEFVRVVKAKEQVVAGTMYYLTLEAKDGGKKKLYEAKVWVKSASYYVYSYNFKELQEFKPVGDA", "fold specificity for AAV9 capsids": "> 3"}
{"binder": "SEQ ID NO 39 (designed binder, N-terminal Met printed as (M)) MATGVRAVPGNENSLEIEELARFAVDEHNKKENALLEFVRVVKAKEQVVAGTMYYLTLEAKDGGKKKLYEAKVWVKWRAVRWWWGNFKELQEFKPVGDA", "fold specificity for AAV9 capsids": "> 3"}
{"binder": "SEQ ID NO 45 (designed binder, N-terminal Met printed as (M)) MATGVRAVPGNENSLEIEELARFAVDEHNKKENALLEFVRVVKAKEQVVAGTMYYLTLEAKDGGKKKLYEAKVWVKVAAYPRASINFKELQEFKPVGDA", "fold specificity for AAV9 capsids": "> 3"}
{"binder": "SEQ ID NO 41 (designed binder, N-terminal Met printed as (M)) MATGVRAVPGNENSLEIEELARFAVDEHNKKENALLEFVRVVKAKEQVVAGTMYYLTLEAKDGGKKKLYEAKVWVKARYVVYYRWNFKELQEFKPVGDA", "fold specificity for AAV9 capsids": "> 3"}
{"binder": "MCDIPPFVCWWPSWCVWATWVCDGAPDCIDNYDEWICTPTP (designed binder, N-terminal Met printed as (M))", "note": "[SEQ ID NO 10]", "fold specificity for AAV9 capsids": "> 3"}
{"binder": "SEQ ID NO 30 (designed binder, N-terminal Met printed as (M)) MATGVRAVSGNENGLEIEELARFAVDEHNKKENALLEFVRVVKAKEQVVAGTMYYLTLEAKDGGKKKLYEAKVWVKRIVRVAVWVNFRELQEFKPVGDA", "fold specificity for AAV9 capsids": "> 3"}
{"binder": "SEQ ID NO 44 (designed binder, N-terminal Met printed as (M)) MATGVRAVPGNENSLEIEELARFAVDEHNKKENALLEFVRMVKAKEQYISVDKWVATMYYLTLEAKDGGKKKLYEAKVWVKYGGSCWRGGNFKELQEFKPVGDA", "fold specificity for AAV9 capsids": "> 3"}
{"binder": "MCAIDNFPCNWYIDCIGATWVCDGIIDCIDIADEYDCTPTP (designed binder, N-terminal Met printed as (M))", "note": "[SEQ ID NO 12]", "fold specificity for AAV9 capsids": "> 3"}
{"binder": "MCWVKIFRCNIVGVCIVNTWVCDGRVDCSDPPDEGWCTPTP (designed binder, N-terminal Met printed as (M))", "note": "[SEQ ID NO 11]", "fold specificity for AAV9 capsids": "> 3"}
{"binder": "SEQ ID NO 53 (designed binder, N-terminal Met printed as (M)) MATGVRAVPGNENSLEIEELARFAVDEHNKKENALLEFVRVVKAKEQRARYYYVNRTMYYLTLEAKDGGKKKLYEAKVWVKWVIRGDSPANFKELQEFKLVGDA", "fold specificity for AAV9 capsids": "> 3"}
